Measurements published in US20250186614A1, “COMPACT DRUG RESPONSIVE DOMAINS FOR REGULATION OF FUNCTION/ABUNDANCE AND DELIVERY OF POLYPEPTIDE PAYLOADS” (OBSIDIAN THERAPEUTICS, INC., priority 2022, published 2025).
Positions count from the first letter of the chain named. Names may count otherwise.

B1: FKBP-279: FKBP13 DRD-AcGFP construct of Table 10 (protein)
chain: HCPIKSRKGDVLHMHYTGKLEDGTEFDSSLPRNRPFVFSLGTGERIKGWDQGLLGMCEGEKRKLVIPSELGYGERGWPPIIPGGATLVFEVELLKIER
modifications: Description of sequence: Construct Name: FKBP-279; Mutation(s): Q72R Q74R Q84E A117W V85R K120I
B2: FKBP-276: FKBP13 DRD-AcGFP construct of Table 10 (protein)
chain: B1 chain with I80K
modifications: Description of sequence: Construct Name: FKBP-276; Mutation(s): Q72R Q74R Q84E A117W V85R
B3: FKBP-278: FKBP13 DRD-AcGFP construct of Table 10 (protein)
chain: B1 chain with I80K, E90F
modifications: Description of sequence: Construct Name: FKBP-278; Mutation(s): Q72R Q74R Q84E A117W V85R E130F
B4: FKBP-277: FKBP13 DRD-AcGFP construct of Table 10 (protein)
chain: B1 chain with I80K, K95Y
modifications: Description of sequence: Construct Name: FKBP-277; Mutation(s): Q72R Q74R Q84E A117W V85R K135Y
B5: FKBP-283: FKBP13 DRD-AcGFP construct of Table 10 (protein)
chain: B1 chain with R34W, I80K, K95Y
modifications: Description of sequence: Construct Name: FKBP-283; Mutation(s): Q72R Q74W Q84E A117W V85R K135Y
B6: FKBP-281: FKBP13 DRD-AcGFP construct of Table 10 (protein)
chain: B1 chain with E90F
modifications: Description of sequence: Construct Name: FKBP-281; Mutation(s): Q72R Q74R Q84E A117W V85R E130F K120I
B7: FKBP-280: FKBP13 DRD-AcGFP construct of Table 10 (protein)
chain: B1 chain with K95Y
modifications: Description of sequence: Construct Name: FKBP-280; Mutation(s): Q72R Q74R Q84E A117W V85R K135Y K120I
B8: FKBP-282: FKBP13 DRD-AcGFP construct of Table 10 (protein)
chain: B1 chain with R34W, I80K
modifications: Description of sequence: Construct Name: FKBP-282; Mutation(s): Q72R Q74W Q84E A117W V85R
B9: FKBP-285: FKBP13 DRD-AcGFP construct of Table 10 (protein)
chain: B1 chain with R34W
modifications: Description of sequence: Construct Name: FKBP-285; Mutation(s): Q72R Q74W Q84E A117W V85R K120I
B10: FKBP-284: FKBP13 DRD-AcGFP construct of Table 10 (protein)
chain: B1 chain with R34W, I80K, E90F
modifications: Description of sequence: Construct Name: FKBP-284; Mutation(s): Q72R Q74W Q84E A117W V85R E130F
B11: FKBP-286: FKBP13 DRD-AcGFP construct of Table 10 (protein)
chain: B1 chain with R34W, K95Y
modifications: Description of sequence: Construct Name: FKBP-286; Mutation(s): Q72R Q74W Q84E A117W V85R K135Y K120I
B12: FKBP-287: FKBP13 DRD-AcGFP construct of Table 10 (protein)
chain: B1 chain with R34W, E90F
modifications: Description of sequence: Construct Name: FKBP-287; Mutation(s): Q72R Q74W Q84E A117W V85R E130F K120I
B13: FKBP-290: FKBP13 DRD-AcGFP construct of Table 10 (protein)
chain: B1 chain with R34Q, E90F
modifications: Description of sequence: Construct Name: FKBP-290; Mutation(s): Q72R Q84E A117W V85R K120I E130F
B14: FKBP-291: FKBP13 DRD-AcGFP construct of Table 10 (protein)
chain: B1 chain with R34Q, I80K, E90N
modifications: Description of sequence: Construct Name: FKBP-291; Mutation(s): Q72R Q84E A117W V85R E130N
B15: FKBP-289: FKBP13 DRD-AcGFP construct of Table 10 (protein)
chain: B1 chain with R34Q, K95Y
modifications: Description of sequence: Construct Name: FKBP-289; Mutation(s): Q72R Q84E A117W V85R K120I K135Y
B16: FKBP-288: FKBP13 DRD-AcGFP construct of Table 10 (protein)
chain: B1 chain with R34Q
modifications: Description of sequence: Construct Name: FKBP-288; Mutation(s): Q72R Q84E A117W V85R K120I
B17: FKBP-292: FKBP13 DRD-AcGFP construct of Table 10 (protein)
chain: B1 chain with R34Q, I80K, K95Q
modifications: Description of sequence: Construct Name: FKBP-292; Mutation(s): Q72R Q84E A117W V85R K135Q
B18: FKBP-271: FKBP13 DRD-AcGFP construct of Table 10 (protein)
chain: B1 chain with R34Q, K63R, I80K
modifications: Description of sequence: Construct Name: FKBP-271; Mutation(s): Q72R Q84E A117W V85R DRD K103R
B19: FKBP-273: FKBP13 DRD-AcGFP construct of Table 10 (protein)
chain: B1 chain with R34Q, E74G, I80K
modifications: Description of sequence: Construct Name: FKBP-273; Mutation(s): Q72R Q84E A117W V85R DRD E114G
B20: FKBP-275: FKBP13 DRD-AcGFP construct of Table 10 (protein)
chain: B1 chain with G9D, R34Q, I80K
modifications: Description of sequence: Construct Name: FKBP-275; Mutation(s): Q72R Q84E A117W V85R DRD G49D
B21: FKBP-274: FKBP13 DRD-AcGFP construct of Table 10 (protein)
chain: B1 chain with R34Q, E69K, I80K
modifications: Description of sequence: Construct Name: FKBP-274; Mutation(s): Q72R Q84E A117W V85R DRD E109K
B22: FKBP-270: FKBP13 DRD-AcGFP construct of Table 10 (protein)
chain: B1 chain with L12M, R34Q, I80K
modifications: Description of sequence: Construct Name: FKBP-270; Mutation(s): Q72R Q84E A117W V85R DRD L52M
B23: FKBP-269 (protein)
chain: B1 chain with H13Q, R34Q, I80K
modifications: Description of sequence: Construct Name: FKBP-269; Mutation(s): Q72R Q84E A117W V85R DRD H53Q

Tested on: Jurkat cells
Assay: Tacrolimus dose response of FKBP13-AcGFP-mCherry constructs stably transduced into Jurkat cells, GFP MFI by flow cytometry
Assay type: cell-based
Details: tacrolimus; FIG. 35
How it was run: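 Jurkat E6-1 cells lentivirally transduced with FKBP13-AcGFP-mCherry constructs to 10-25% mCherry+ (day 5) were dosed with tacrolimus. GFP geometric MFI in mCherry+ cells was measured by flow cytometry and fitted to dose-response curves.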

For B1, which FC is on record?
Its FC is 31.33.

And the Peak?
The Peak was 3302.

For B2, which FC is on record?
The FC was 7.54.

And the Peak?
The Peak was 2859.

Which FC does the source give for B3 here?
The FC was 92.73.

And the Peak?
The Peak was 3425.

With B4 as the molecule, how does the FC read?
The FC was 61.04.

And the Peak?
Its Peak is 2581.

Same assay, conditions: tacrolimus; FIG. 36

Which results are given for B5?
FC: 39.79; Peak: 1328

Which results are given for B6?
FC: 77.66; Peak: 2905

B7 was tested. Which FC did it give?
Its FC is 68.34.

What about the Peak of the same molecule?
The Peak was 2468.

Which FC does the source give for B8 here?
Its FC is 39.54.

What about the Peak of the same molecule?
The Peak was 2473.

Same assay, conditions: tacrolimus; FIG. 37

Which FC does the source give for B9 here?
Its FC is 36.71.

What about the Peak of the same molecule?
Its Peak is 2161.

How did the FC turn out when B10 was run?
The FC was 58.23.

And the Peak?
Its Peak is 2441.

Which FC does the source give for B11 here?
The FC was 25.96.

And the Peak?
Its Peak is 1089.

B12 was tested. Which FC did it give?
The FC was 47.09.

And the Peak?
Its Peak is 1747.

Same assay, conditions: tacrolimus; FIG. 38

What does the source list for B13?
FC: 92.89; Peak: 3191

How did the FC turn out when B14 was run?
The FC was 53.37.

And the Peak?
Its Peak is 3859.

How did the FC turn out when B15 was run?
The FC was 73.38.

What about the Peak of the same molecule?
Its Peak is 2659.

How did the FC turn out when B16 was run?
Its FC is 30.10.

What about the Peak of the same molecule?
The Peak was 3718.

What does the source list for B17?
FC: 50.68; Peak: 3797

Same assay, conditions: tacrolimus; FIGS. 33 and 34

Which FC does the source give for B18 here?
Its FC is 19.

How did the FC turn out when B19 was run?
Its FC is 36.

How did the FC turn out when B20 was run?
Its FC is 56.

B21 was tested. Which FC did it give?
The FC was 34.

For B22, which FC is on record?
Its FC is 38.

Same assay, conditions: tacrolimus; Jurkat cells; Table 13

B23 was tested. Which “Fold Change” value did it give?
The value was 44.

For B13, which “Fold Change” value is on record?
The value was 92.89.

B5 was tested. Which “Fold Change” value did it give?
The value was 39.79.

Which “Fold Change” value does the source give for B9 here?
Its value is 36.71.

How did the “Fold Change” value turn out when B14 was run?
The value was 53.37.

With B15 as the molecule, how does the “Fold Change” value read?
The value was 73.38.

B6 was tested. Which “Fold Change” value did it give?
The value was 77.66.

How did the “Fold Change” value turn out when B18 was run?
Its value is 19.

For B19, which “Fold Change” value is on record?
Its value is 36.

How did the “Fold Change” value turn out when B16 was run?
Its value is 30.1.

B7 was tested. Which “Fold Change” value did it give?
Its value is 68.34.

Which “Fold Change” value does the source give for B10 here?
The value was 58.23.

How did the “Fold Change” value turn out when B1 was run?
The value was 31.33.

For B2, which “Fold Change” value is on record?
Its value is 7.54.

For B11, which “Fold Change” value is on record?
The value was 25.96.

For B20, which “Fold Change” value is on record?
The value was 56.

B3 was tested. Which “Fold Change” value did it give?
The value was 92.73.

B17 was tested. Which “Fold Change” value did it give?
Its value is 50.68.

With B12 as the molecule, how does the “Fold Change” value read?
Its value is 47.09.

How did the “Fold Change” value turn out when B21 was run?
Its value is 34.

For B4, which “Fold Change” value is on record?
The value was 61.04.

Which “Fold Change” value does the source give for B8 here?
Its value is 39.54.

Which “Fold Change” value does the source give for B22 here?
The value was 38.
